Patent publication US20250277044A1 (published 2025)

Legend:
[1] = target: T1, recombinant human 4-1BB (Sino Biological Inc., catalog number 10041-H08H) (human, UniProt Q07011 24-186); test: competition ELISA; blocking of 4-1BB/4-1BBL
[2] = target: T1, recombinant human 4-1BB (Sino …); test: ELISA; FIG. 6
[3] = target: T1, recombinant human 4-1BB (Sino …); test: ELISA; FIG. 6; remark: listed apart in the source
[4] = target: T1, recombinant human 4-1BB (Sino …); test: ELISA; FIG. 2

EC50 [1] | EC50 [2] | EC50 [3] | EC50 [4] | Binder
14 nM | 0.086 nM |  |  | humanized anti-human 4-1BB monoclonal antibody BH3145b (antibody, V domains shown) VH: QVQLVQSGAEVKKPGSSVKVSCKASGYTFTSYWINWVRQAPGQGLEWMGNIYPSDSYTNYNQKFKDRVTITADKSTSTAYMELSSLRSEDTAVYYCARLYYGSSPFDYWGQGTTVTVSS VL: DIQMTQSPSSLSASVGDRVTITCRASQDISNYLNWYQQKPGKVPKLLIYHTSRLHSGVPSRFSGSGSGTDFTLTISSLQPEDVATYYCQQGHTLPRTFGGGTKVEIKR
 |  | 0.087 nM | 0.087 nM | Urelumab (a patent sequence from WO2004010947) (antibody, V domains shown) VH: QVQLQQWGAGLLKPSETLSLTCAVYGGSFSGYYWSWIRQSPEKGLEWIGEINHGGYVTYNPSLESRVTISVDTSKNQFSLKLSSVTAADTAVYYCARDYGPGNYDWYFDLWGRGTLVTVSS VL: EIVLTQSPATLSLSPGERATLSCRASQSVSSYLAWYQQKPGQAPRLLIYDASNRATGIPARFSGSGSGTDFTLTISSLEPEDFAVYYCQQRSNWPPALTFGGGTKVEIK
